# Laboratory results as given in IntAct's records for PubMed 31515488.
# B1: E3 ubiquitin-protein ligase TRIM17 (Homo sapiens), Q9Y577 (parent)
# chain: MEAVELARKLQEEATCSICLDYFTDPVMTTCGHNFCRACIQLSWEKARGKKGRRKRKGSFPCPECREMSPQRNLLPNRLLTKVAEMAQQHPGLQKQDLCQEHHEPLKLFCQKDQSPICVVCRESREHRLHRVLPAEEAVQGYKLKLEEDMEYLREQITRTGNLQAREEQSLAEWQGKVKERRERIVLEFEKMNLYLVEEEQRLLQALETEEEETASRLRESVACLDRQGHSLELLLLQLEERSTQGPLQMLQDMKEPLSRKNNVSVQCPEVAPPTRPRTVCRVPGQIEVLRGFLEDVVPDATSAYPYLLLYESRQRRYLGSSPEGSGFCSKDRFVAYPCAVGQTAFSSGRHYWEVGMNITGDALWALGVCRDNVSRKDRVPKCPENGFWVVQLSKGTKYLSTFSALTPVMLMEPPSHMGIFLDFEAGEVSFYSVSDGSHLHTYSQATFPGPLQPFFCLGAPKSGQMVISTVTMWVKG
# partner: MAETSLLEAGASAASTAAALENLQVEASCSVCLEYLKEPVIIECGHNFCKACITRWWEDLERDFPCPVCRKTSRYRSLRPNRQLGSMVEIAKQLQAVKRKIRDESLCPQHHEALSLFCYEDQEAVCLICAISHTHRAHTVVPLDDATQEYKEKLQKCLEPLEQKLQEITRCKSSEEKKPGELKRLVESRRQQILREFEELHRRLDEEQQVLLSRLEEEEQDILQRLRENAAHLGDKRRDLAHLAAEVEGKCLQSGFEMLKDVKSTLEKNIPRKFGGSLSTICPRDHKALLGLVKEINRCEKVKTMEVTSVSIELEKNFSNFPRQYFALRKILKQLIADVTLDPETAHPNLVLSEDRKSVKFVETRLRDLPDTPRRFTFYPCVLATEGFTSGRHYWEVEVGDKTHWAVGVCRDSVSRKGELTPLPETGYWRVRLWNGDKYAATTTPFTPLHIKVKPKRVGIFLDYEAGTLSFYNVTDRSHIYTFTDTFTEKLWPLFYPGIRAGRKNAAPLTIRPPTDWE
# B2: PIH1 domain-containing protein 2 (Homo sapiens), Q8WWB5 (parent)
# chain: METSSKGLLTQVTQFWNLLDDLAQSDPEGYEKFIQQQLKEGKQLCAAPEPQLCLQTRILKPKEKILFINLCQWTRIPAPQSTTHPVPLTVGKPEDTTEISDAYTVIDVAYNPDVLHAAEKDQVKKNQLIQMAMKCIEEKFQFTLSHSYHITKFRIKGSIQRMKQNLMGIQTDSIDLREKMRRELTLGQIRSSTMSNPDHFPQLLLPKDQVSGKAVCLIEEISSTEIQVEMKMPAYELKIVHDHSEKPLKIELKVELPGINSVSLCDLSVSEDDLLIEVSEKYRLHLNLPKLIDTEMTTAKFIKEKSTLIITMPLV
# B3: Phosphatidylserine lipase ABHD16A (Homo sapiens), O95870 (parent)
# chain: MAKLLSCVLGPRLYKIYRERDSERAPASVPETPTAVTAPHSSSWDTYYQPRALEKHADSILALASVFWSISYYSSPFAFFYLYRKGYLSLSKVVPFSHYAGTLLLLLAGVACLRGIGRWTNPQYRQFITILEATHRNQSSENKRQLANYNFDFRSWPVDFHWEEPSSRKESRGGPSRRGVALLRPEPLHRGTADTLLNRVKKLPCQITSYLVAHTLGRRMLYPGSVYLLQKALMPVLLQGQARLVEECNGRRAKLLACDGNEIDTMFVDRRGTAEPQGQKLVICCEGNAGFYEVGCVSTPLEAGYSVLGWNHPGFAGSTGVPFPQNEANAMDVVVQFAIHRLGFQPQDIIIYAWSIGGFTATWAAMSYPDVSAMILDASFDDLVPLALKVMPDSWRGLVTRTVRQHLNLNNAEQLCRYQGPVLLIRRTKDEIITTTVPEDIMSNRGNDLLLKLLQHRYPRVMAEEGLRVVRQWLEASSQLEEASIYSRWEVEEDWCLSVLRSYQAEHGPDFPWSVGEDMSADGRRQLALFLARKHLHNFEATHCTPLPAQNFQMPWHL
# B4: SH2 domain-containing protein 4A (Homo sapiens), Q9H788 (parent)
# chain: MLKQILSEMYIDPDLLAELSEEQKQILFFKMREEQIRRWKEREAAMERKESLPVKPRPKKENGKSVHWKLGADKEVWVWVMGEHHLDKPYDVLCNEIIAERARLKAEQEAEEPRKTHSEEFTNSLKTKSQYHDLQAPDNQQTKDIWKKVAEKEELEQGSRPAPTLEEEKIRSLSSSSRNIQQMLADSINRMKAYAFHQKKESMKKKQDEEINQIEEERTKQICKSWKEDSEWQASLRKSKAADEKRRSLAKQAREDYKRLSLGAQKGRGGERLQSPLRVPQKPERPPLPPKPQFLNSGAYPQKPLRNQGVVRTLSSSAQEDIIRWFKEEQLPLRAGYQKTSDTIAPWFHGILTLKKANELLLSTGMPGSFLIRVSERIKGYALSYLSEDGCKHFLIDASADAYSFLGVDQLQHATLADLVEYHKEEPITSLGKELLLYPCGQQDQLPDYLELFE
# partner: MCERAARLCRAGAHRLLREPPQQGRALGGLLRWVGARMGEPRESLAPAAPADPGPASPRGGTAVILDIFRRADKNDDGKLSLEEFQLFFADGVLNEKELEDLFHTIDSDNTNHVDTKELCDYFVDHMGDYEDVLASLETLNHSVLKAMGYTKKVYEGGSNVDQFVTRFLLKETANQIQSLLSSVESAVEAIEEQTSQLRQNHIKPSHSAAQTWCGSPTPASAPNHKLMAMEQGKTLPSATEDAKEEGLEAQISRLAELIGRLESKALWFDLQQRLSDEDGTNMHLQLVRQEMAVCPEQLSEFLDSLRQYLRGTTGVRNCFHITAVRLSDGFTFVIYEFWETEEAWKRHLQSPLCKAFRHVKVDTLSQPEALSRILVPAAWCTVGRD
# B5: Notch homolog 2 N-terminal-like protein A (Homo sapiens), Q7Z3S9 (parent)
# chain: MCVTYHNGTGYCKCPEGFLGEYCQHRDPCEKNRCQNGGTCVAQAMLGKATCRCASGFTGEDCQYSTSHPCFVSRPCLNGGTCHMLSRDTYECTCQVGFTGKECQWTDACLSHPCANGSTCTTVANQFSCKCLTGFTGQKCETDVNECDIPGHCQHGGTCLNLPGSYQCQCLQGFTGQYCDSLYVPCAPSPCVNGGTCRQTGDFTFECNCLPETVRRGTELWERDREVWNGKEHDEN
# partner: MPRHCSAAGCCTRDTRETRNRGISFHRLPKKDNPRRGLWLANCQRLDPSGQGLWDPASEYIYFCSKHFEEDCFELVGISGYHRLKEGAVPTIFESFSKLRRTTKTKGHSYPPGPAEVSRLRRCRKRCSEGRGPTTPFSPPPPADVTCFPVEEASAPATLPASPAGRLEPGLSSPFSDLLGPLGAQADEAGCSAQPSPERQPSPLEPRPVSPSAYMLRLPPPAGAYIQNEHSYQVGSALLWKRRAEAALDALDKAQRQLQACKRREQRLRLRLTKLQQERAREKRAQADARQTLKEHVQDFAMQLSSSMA
# B6: Coiled-coil domain-containing protein 33 (Homo sapiens), Q8N5R6-5 (parent)
# chain: MGEPGPPSPPAPKAAPGLIDSFSEMNNYRRAMQKMAEDILSLRRQASILEGENRILRSRLAQQEEEEGQGKASEAQNTVSMKQKLLLSELDMKKLRDRVQHLQNELIRKNDREKELLLLYQAQQPQAALLKQYQGKLQKMKALEETVRHQEKVIEKMERVLEDRLQDRSKPPPLNRQQGKPYTGFPMLSASGLPLGSMGENLPVELYSVLLAENAKLRTELDKNRHQQAPIILQQQALPVDPGELGAGGDLTERLQETHGPGHSECTETLPAQDLLSGTSDKFNLLAKLEHAQSRILSLESQLEDSARRWGREKQDLATRLQEQEKGFRHPSNSIIIEQPVSDPPGVAPRGSGGGAGSHRTPKVTGP
# partner: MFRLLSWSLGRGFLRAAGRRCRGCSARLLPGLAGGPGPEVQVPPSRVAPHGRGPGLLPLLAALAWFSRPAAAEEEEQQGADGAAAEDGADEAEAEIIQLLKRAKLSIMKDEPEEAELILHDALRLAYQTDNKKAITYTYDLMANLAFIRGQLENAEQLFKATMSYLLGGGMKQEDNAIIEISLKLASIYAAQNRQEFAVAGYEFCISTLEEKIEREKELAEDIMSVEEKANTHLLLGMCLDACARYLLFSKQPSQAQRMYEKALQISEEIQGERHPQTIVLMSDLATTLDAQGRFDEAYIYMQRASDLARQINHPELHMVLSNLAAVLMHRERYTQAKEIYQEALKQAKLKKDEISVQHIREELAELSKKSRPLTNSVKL
# B7: Four and a half LIM domains protein 5 (Homo sapiens), Q5TD97 (parent)
# chain: MTTAHFYCQYCTASLLGKKYVLKDDSPYCVTCYDRVFSNYCEECKKPIESDSKDLCYKDRHWHEGCFKCTKCNHSLVEKPFAAKDERLLCTECYSNECSSKCFHCKRTIMPGSRKMEFKGNYWHETCFVCENCRQPIGTKPLISKESGNYCVPCFEKEFAHYCNFCKKVITSGGITFCDQLWHKECFLCSGCRKDLCEEQFMSRDDYPFCVDCYNHLYANKCVACSKPISGLTGAKFICFQDSQWHSECFNCGKCSVSLVGKGFLTQNKEIFCQKCGSGMDTDI
# partner: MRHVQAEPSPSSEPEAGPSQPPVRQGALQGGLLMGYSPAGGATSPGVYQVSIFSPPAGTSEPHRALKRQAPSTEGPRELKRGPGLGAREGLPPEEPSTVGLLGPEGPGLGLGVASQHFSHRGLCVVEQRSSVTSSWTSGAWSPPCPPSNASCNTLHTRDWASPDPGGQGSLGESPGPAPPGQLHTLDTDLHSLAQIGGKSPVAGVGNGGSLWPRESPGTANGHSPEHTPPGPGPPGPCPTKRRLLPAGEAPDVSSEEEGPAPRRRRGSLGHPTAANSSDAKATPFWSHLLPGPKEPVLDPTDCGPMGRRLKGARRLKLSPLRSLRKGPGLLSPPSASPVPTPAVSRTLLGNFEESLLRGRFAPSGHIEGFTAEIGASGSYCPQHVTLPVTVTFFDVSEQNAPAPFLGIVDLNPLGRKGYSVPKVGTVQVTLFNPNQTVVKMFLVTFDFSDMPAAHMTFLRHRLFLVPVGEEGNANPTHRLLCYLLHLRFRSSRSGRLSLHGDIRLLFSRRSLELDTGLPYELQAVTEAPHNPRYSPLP
# Variants of: B1
# Settings: with tri39_human TRIM39, Q9HCM9
row,Variant,effect of a mutation on the interaction
1,T30A,disrupting interaction strength
2,E173K,with no effect

# Variants of: B2
# Settings: with cenpr_human ITGB3BP
row,Variant,effect of a mutation on the interaction
1,A117V,with no effect
2,A102D,with no effect

# Variants of: B2
# Settings: with if2b3_human IGF2BP3, O00425
# if2b3_human IGF2BP3, O00425, sequence (O00425 whole entry): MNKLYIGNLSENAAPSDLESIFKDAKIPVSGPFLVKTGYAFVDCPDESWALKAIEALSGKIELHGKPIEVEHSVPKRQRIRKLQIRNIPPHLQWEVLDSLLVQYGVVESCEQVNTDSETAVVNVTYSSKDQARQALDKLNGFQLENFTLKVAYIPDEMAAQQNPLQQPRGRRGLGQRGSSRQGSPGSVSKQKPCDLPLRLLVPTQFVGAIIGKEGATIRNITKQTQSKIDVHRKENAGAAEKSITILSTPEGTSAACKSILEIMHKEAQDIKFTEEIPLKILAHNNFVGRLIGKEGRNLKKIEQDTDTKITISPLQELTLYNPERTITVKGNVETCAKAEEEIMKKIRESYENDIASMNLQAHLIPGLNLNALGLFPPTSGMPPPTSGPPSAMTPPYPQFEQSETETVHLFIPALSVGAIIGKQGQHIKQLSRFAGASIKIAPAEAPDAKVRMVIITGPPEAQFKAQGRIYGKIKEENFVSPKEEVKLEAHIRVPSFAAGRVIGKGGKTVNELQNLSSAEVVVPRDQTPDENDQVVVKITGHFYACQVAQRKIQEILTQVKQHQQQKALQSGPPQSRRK
row,Variant,effect of a mutation on the interaction
1,A117V,with no effect
2,A102D,with no effect

# Variants of: B2
# Settings: with if4a2_human EIF4A2, Q14240
# if4a2_human EIF4A2, Q14240, sequence (Q14240 whole entry): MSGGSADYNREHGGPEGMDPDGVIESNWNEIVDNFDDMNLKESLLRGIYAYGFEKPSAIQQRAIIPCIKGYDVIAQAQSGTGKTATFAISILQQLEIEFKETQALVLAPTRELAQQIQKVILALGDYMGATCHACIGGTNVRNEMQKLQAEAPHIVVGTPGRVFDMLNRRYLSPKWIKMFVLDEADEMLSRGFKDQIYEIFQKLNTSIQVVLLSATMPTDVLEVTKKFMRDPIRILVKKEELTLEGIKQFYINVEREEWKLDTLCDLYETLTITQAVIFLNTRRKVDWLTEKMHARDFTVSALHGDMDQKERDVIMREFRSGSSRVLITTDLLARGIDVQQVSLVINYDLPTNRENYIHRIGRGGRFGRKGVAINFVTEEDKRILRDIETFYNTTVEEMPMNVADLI
row,Variant,effect of a mutation on the interaction
1,A117V,with no effect
2,A102D,with no effect

# Variants of: B2
# Settings: with gfap_human GFAP
row,Variant,effect of a mutation on the interaction
1,A117V,disrupting interaction strength
2,A102D,with no effect

# Variants of: B3
# Settings: with dtx2_human DTX2, Q86UW9
# dtx2_human DTX2, Q86UW9, sequence (Q86UW9 whole entry): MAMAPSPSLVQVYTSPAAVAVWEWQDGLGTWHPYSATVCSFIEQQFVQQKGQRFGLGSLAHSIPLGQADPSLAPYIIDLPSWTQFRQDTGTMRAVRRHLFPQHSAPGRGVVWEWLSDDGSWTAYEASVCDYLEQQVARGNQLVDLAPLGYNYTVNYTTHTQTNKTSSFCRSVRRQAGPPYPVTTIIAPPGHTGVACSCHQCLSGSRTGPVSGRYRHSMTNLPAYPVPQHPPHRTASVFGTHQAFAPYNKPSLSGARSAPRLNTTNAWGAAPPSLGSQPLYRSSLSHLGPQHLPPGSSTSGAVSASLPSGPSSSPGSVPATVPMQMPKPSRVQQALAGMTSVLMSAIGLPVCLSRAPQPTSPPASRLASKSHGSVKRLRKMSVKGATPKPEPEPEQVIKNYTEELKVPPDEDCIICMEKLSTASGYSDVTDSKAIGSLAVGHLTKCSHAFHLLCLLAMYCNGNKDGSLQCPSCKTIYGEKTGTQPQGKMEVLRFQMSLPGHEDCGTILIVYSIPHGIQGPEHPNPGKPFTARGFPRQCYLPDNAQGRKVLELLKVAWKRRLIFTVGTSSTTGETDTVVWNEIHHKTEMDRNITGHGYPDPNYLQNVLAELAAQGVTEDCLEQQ
row,Variant,effect of a mutation on the interaction
1,R184L,with no effect

# Variants of: B4
# Settings: with neca2_human NECAB2, Q7Z6G3
row,Variant,effect of a mutation on the interaction
1,G263A,with no effect
2,K303R,with no effect
3,E216G,with no effect

# Variants of: B5
# Settings: with thap7_human THAP7, Q9BT49
row,Variant,effect of a mutation on the interaction
1,A115T,with no effect
2,R74Q,with no effect

# Variants of: B6
# Settings: with ttc19_human TTC19, Q6DKK2
row,Variant,effect of a mutation on the interaction
1,P203L,with no effect
2,R30L,with no effect
3,G196R,with no effect
4,M25V,with no effect

# Variants of: B7
# Settings: with atosb_human ATOSB
row,Variant,effect of a mutation on the interaction
1,R60W,with no effect
2,M202L,with no effect
